We go through one protein from PMC9311411, “A Morphing [4Fe‐3S‐nO]‐Cluster within a Carbon Monoxide Dehydrogenase Scaffold” (Angewandte Chemie (International Ed. in English), 2022).

Substrate in this data set: NO
Briefly: reoxidation of reduced methyl viologen. It is filed as biochemical, Carboxydothermus hydrogenoformans. Particulars: 0-100 mM NH2OH; reduced methyl viologen as artificial electron donor; two-electron reduction to ammonia and water. The text has this: reoxidation of reduced methyl viologen on CooS‐V Ch | hyperbolic dependency on the NH2OH concentration (Figure S2‐C)

B1: CooS‐V Ch (Carboxydothermus hydrogenoformans Z-2901) (protein)
chain: MATKTSIHPSVNELYQRLAEDQLSNCFDRFDPQEKIRCNYCELGVSCQLCSNGPCRINEKVGATLGVCGINADGMAMRYMLLRNVMGTSTYTYHAYEAYKTLKMTALGNTPFTITDKDKLYQMAKDLELNTEGKPEDVAVRLSDFLIWELYRDYDEPGKMIEVYAPLKRKEVWRKLGIYPAGPLHELKDAAASCLTNVDGDYVSLATKGLRLGLSCIYGAQIGLELVQDILFGTGMPHEMDVDLGIFDADYINIVFNGHEPFVGVALILAAKEAVNQDKAKAAGAKSLRIYGSIESGQEVVQRFQKDEVFRGLTGNWLTIEPMLATGAVDVLAMDMNCSPPNLGPLAEKYGATLVSVSRLVRFPGIHHFLDYKPSEVREIAQKIIDIAVDSFKNKRHGKITPKIPANIQKAITGFTPEAILKALGGSINPLIEVIKAGKIKGAVGLINCTTLKNGPQDYVTVNLAKELIKRDILILSGGCGNHALEVAGLCNLDAINLAGPGLSEVCRNLNIPPVLSFGTCTDTGRISLVVTALANALNVDTADLPVAVTAPMYMEQKATIDALFALAYGLYTHVAPDPPVMGAPNLVKLLTRDLPSITGGRIAVGSDPVKVADDILAHINDRRAKLGI
notes: full length, 629 residues; homodimer, apparent 118 kDa; [2Fe-2S], [4Fe-4S] and Fe/S/O hybrid cluster, no Ni
The Km is the substrate concentration at which the rate is half of its maximum. With B1, the Km came out at 7.6 ± 2.0 mM and the kcat was determined as 0.13 s–1.
